In patent US7067473:

How the values were obtained:
[1] = biological target: recombinant enovin (mature Enovin with NH2-terminal 6x His-tag, expressed from hEVNmat/pRSETB in E. coli BL21(DE3), refolded) (human); experiment: SPR (BIAcore 3000, 25 °C), enovin immobilised, soluble GFRα3-Fc as analyte, three concentrations
[2] = biological target: recombinant enovin (mature Enovin with NH2-terminal 6x His-tag, expressed from hEVNmat/pRSETB in E. coli BL21(DE3), refolded) (human); experiment: SPR (BIAcore 3000, 25 °C), enovin immobilised, soluble GFRα3-Fc as analyte; KD calculated as kd/ka

B1: soluble GFRα-3 IgG-Fc fusion protein (GFRα-3 amino acids 28 to 371 fused to human IgG1-Fc) (Fc fusion, UniProt O60609 28-371, looked up, not shown: a dimerising Fc or GST)
chain: LAAGDPLPTESRLMNSCLQARRKCQADPTCSAAYHHLDSCTSSISTPLPSEEPSVPADCLEAAQQLRNSSLIGCMCHRRMKNQVACLDIYWTVHRARSLGNYELDVSPYEDTVTSKPWKMNLSKLNMLKPDSDLCLKFAMLCTLNDKCDRLRKAYGEACSGPHCQRHVCLRQLLTFFEKAAEPHAQGLLLCPCAPNDRGCGERRRNTIAPNCALPPVAPNCLELRRLCFSDPLCRSRLVDFQTHCHPMDILGTCATEQSRCLRAYLGLIGTAMTPNFVSNVNTSVALSCTCRGSGNLQEECEMLEGFFSHNPCLTEAIAAKMRFHSQLFSQDWPHPTFAVMAHQ
- koff [1]: 0.000508 s⁻¹
- kon [1]: 165000 M⁻¹ s⁻¹
- Kd [2]: 3.1 nM
